Data from IntAct's records for PubMed 22613832.

B1: Ras-related protein Rab-11B (Homo sapiens), Q15907 (parent)
chain: MGTRDDEYDYLFKVVLIGDSGVGKSNLLSRFTRNEFNLESKSTIGVEFATRSIQVDGKTIKAQIWDTAGQERYRAITSAYYRGAVGALLVYDIAKHLTYENVERWLKELRDHADSNIVIMLVGNKSDLRHLRAVPTDEARAFAEKNNLSFIETSALDSTNVEEAFKNILTEIYRIVSQKQIADRAAHDESPGNNVVDISVPPTTDGQKPNKLQCCQNL
partner: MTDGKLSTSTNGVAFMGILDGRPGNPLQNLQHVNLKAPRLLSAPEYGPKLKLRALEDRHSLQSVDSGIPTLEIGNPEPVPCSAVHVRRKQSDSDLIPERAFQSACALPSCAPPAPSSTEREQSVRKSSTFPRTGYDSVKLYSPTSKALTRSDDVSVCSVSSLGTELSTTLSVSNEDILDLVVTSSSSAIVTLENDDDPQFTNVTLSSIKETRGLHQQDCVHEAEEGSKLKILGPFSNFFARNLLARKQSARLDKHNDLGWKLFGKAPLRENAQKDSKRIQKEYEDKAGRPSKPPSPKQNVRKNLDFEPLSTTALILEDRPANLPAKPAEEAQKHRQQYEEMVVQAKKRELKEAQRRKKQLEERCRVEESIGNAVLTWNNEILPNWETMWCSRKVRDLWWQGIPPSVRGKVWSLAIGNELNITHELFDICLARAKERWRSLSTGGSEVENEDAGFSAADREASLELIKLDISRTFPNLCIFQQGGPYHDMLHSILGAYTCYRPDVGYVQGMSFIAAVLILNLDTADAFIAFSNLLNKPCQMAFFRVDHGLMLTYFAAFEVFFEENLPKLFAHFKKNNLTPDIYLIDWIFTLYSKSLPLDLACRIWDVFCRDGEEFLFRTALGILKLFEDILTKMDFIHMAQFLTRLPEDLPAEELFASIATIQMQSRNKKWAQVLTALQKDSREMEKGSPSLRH

Variants of: B1
Conditions: with tbc14_human TBC1D14, Q9P2M4

| Variant | effect of a mutation on the interaction |
| --- | --- |
| MGTRDDEYDYLFKVVLIGDSGVGKSNLLSRFTRNEFNLESKSTIGVEFATRSIQVDGKTIKAQIWDTAGAERYRAITSAYYRGAVGALLVYDIAKHLTYENVERWLKELRDHADSNIVIMLVGNKSDLRHLRAVPTDEARAFAEKNNLSFIETSALDSTNVEEAFKNILTEIYRIVSQKQIADRAAHDESPGNNVVDISVPPTTDGQKPNKLQCCQNL [Q70A] | increasing interaction strength |
| MGTRDDEYDYLFKVVLIGDSGVGKNNLLSRFTRNEFNLESKSTIGVEFATRSIQVDGKTIKAQIWDTAGQERYRAITSAYYRGAVGALLVYDIAKHLTYENVERWLKELRDHADSNIVIMLVGNKSDLRHLRAVPTDEARAFAEKNNLSFIETSALDSTNVEEAFKNILTEIYRIVSQKQIADRAAHDESPGNNVVDISVPPTTDGQKPNKLQCCQNL [S25N] | decreasing interaction strength |
